The target of test [1] is human neuronal calcium channel α1B-2α2bβ1-3 (human).
The target is the same in test [2]. The test can be described thus: saturation binding of 125I-ω-CgTx GVIA to transiently transfected HEK293 cells.
The target of test [3] is human neuronal calcium channel α1B-1 subunit (human).

In general, Kd refers to the equilibrium constant for the complex coming apart.

Take CKSPGSSCSPTSYNCCRSCNPYTKRCY (modifications not checked) [125I-ω-CgTx GVIA, P01522 46-72]: in test [1], the fold binding capacity against α1B-2α2bβ1-2 was found to be 2 fold and the fold surface receptor density against α1B-2β1-3 came out at 13 fold. In test [2], the Bmax (sites/cell) stood at 37700 sites/cell and the Kd was found to be 44.3 pM. Besides, in test [3], the Bmax (sites/cell) came to 757 sites/cell and the Kd is 31.7 pM.

The values are drawn from US7063950.
